Results on 2 molecules are retold here after US20090035818A1 (NATIONAL UNIVERSITY OF CORPORATION HIROSHIMA UNIVERSITY, published 2009).

Experiment [1] has as its target T1, chicken egg yolk antibody (chicken IgY antibody) (chicken).
T1 construct: Purified from egg yolk with the Eggcellent Chicken IgY Purification Kit (Pierce)
Put plainly: SPR (Biacore 2000), chicken IgY on CM5 chip, lectin as analyte. An excerpt: Assessment was made as to affinity of the different types of lectins and chicken egg yolk antibody (chicken IgY antibody). Briefly, using Biacore 2000 (BIACORE) that employs the principle of surface plasmon resonance method (hereinafter, “SPR method”), chicken egg yolk antibodies (chicken IgY antibodies) were immobilized as ligands on a sensor chip, and measurements were made according to manuals using each type of lectin solution as an analyte. The SPR technique allows for measurement of specific interactions between biomolecules both quickly and quantitatively, without labeling the biomolecules. According to this technique, the ligands are immobilized on a surface of the sensor chip, which is then supplemented with a solution of substance (analyte) that acts on the ligand. Slight changes in mass caused by the binding and dissociation of the molecules are then detected as changes in SPR signals. The mass change is represented by resonance unit (RU). One thousand RU is equivalent to a change in reflection angle of 0.1° caused by resonance, and it means that the analyte has bound to the ligand at 1 ng/mm². The surface of the sensor chip is coated with dextran, and the ligands are immobilized primarily via carboxyl groups that have been introduced into the dextran.
Affinity between each glycoprotein and each lectin was analyzed by SPR technique. Prior to analysis, preliminary analyses were made to assess analysis methods. […] An analysis program was created using “Customized Application” according to the manual, and a subtraction function was used in which subtraction was made from flow cells that had glycoproteins immobilized thereon, from among four flow cells in the sensor chip. […] Under this analysis program, each analyte (lectin) solution was flown on the sensor chip at a flow rate of 30 μl/min for 3 minutes, and buffer was flown for 3 minutes to measure the amount of lectin that had bonded/dissociated.
In general terms: SPR reads the build-up and loss of mass on a sensor chip optically.

Experiment [2] addresses asialotransferrin (human, UniProt P02787 20-698, sugar chains desialylated by dilute acid treatment; only complex-type sugar chain). As to the kind of experiment: cell-based or functional assay.
The target of experiment [3] is transferrin (human) (human, UniProt P02787 20-698). Put plainly: cell-based or functional assay.
Experiment [4] addresses T2, fetuin (type III, calf serum) (calf, UniProt P12763 19-359).
T2 sequence (looked up): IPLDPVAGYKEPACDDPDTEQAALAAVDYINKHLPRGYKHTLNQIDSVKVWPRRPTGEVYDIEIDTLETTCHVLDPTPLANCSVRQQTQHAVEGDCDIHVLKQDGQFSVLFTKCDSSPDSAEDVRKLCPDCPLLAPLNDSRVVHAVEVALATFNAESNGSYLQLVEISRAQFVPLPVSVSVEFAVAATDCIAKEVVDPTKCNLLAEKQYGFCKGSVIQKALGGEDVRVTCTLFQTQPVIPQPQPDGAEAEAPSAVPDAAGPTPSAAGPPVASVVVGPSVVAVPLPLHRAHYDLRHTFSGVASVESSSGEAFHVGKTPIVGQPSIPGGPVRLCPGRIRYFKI
Put plainly: cell-based or functional assay.

The target of experiment [5] is T3, asialofetuin (calf, UniProt P12763 19-359, sugar chains desialylated).
T3 sequence (looked up): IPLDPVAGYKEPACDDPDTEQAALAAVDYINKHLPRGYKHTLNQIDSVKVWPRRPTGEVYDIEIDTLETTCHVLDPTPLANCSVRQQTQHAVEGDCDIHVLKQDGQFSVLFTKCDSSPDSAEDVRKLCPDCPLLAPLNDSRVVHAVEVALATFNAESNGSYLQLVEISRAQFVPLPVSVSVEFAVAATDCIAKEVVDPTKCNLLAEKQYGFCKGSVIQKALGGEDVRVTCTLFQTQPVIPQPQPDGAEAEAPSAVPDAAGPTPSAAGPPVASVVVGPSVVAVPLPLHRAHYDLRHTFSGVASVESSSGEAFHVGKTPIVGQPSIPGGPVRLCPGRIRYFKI
Put plainly: cell-based or functional assay.

Experiment [6] concerns the target mucin (bovine submaxillary gland) (bovine). As to the kind of experiment: cell-based or functional assay.
Experiment [7] deals with asialomucin (bovine). Put plainly: cell-based or functional assay.

Sequence of transferrin (human) (P02787 20-698 limits assumed): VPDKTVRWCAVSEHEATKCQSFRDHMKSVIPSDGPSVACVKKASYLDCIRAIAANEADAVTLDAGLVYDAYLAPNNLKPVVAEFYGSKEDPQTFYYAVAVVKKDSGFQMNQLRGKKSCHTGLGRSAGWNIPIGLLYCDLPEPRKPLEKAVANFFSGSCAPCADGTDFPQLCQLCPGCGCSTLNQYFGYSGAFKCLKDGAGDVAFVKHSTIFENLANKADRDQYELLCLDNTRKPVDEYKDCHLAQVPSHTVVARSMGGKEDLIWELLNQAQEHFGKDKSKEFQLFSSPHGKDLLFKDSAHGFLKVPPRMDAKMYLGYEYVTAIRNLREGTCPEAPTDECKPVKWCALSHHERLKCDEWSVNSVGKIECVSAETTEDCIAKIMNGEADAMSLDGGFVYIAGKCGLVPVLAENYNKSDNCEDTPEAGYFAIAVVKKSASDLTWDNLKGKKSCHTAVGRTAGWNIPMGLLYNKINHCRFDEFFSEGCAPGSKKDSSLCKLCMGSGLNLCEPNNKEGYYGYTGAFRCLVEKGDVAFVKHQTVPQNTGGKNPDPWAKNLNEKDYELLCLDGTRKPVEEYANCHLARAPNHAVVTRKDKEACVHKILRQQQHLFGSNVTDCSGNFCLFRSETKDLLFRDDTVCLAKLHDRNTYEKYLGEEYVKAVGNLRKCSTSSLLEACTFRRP
Sequence of asialotransferrin (P02787 20-698 limits assumed): as above

B1: Eucheuma serra-derived lectin ESA-2 (other)
chain: GRYTVQNQWGGSSAPWNDAGLWILGSRGNQNVMAVDVNSSDGGANLNGTMTYSGEGPIGFKGARRGESNVYDVENQWGGSSAPWHAGGQFVIGSRSGQGVLAVNITSSDGGKTLTGTMTYEREGPIGFKGTQSGGDTYNVENQWGGSSAPWNKAGIWALGDRSGQAMIAMDVSSSDGGKTLEGTMQYKGEGPIGFRGKLSGANNYSVENQWGGSSAPWNAAGDWLIGDRHNQNITAVKVSSDNDGKNLDGTCTYEREGPIGFKGVATS
As usually defined, the Kd is the concentration at which binding is half-saturated. Low values mean higher affinity, high ones lower affinity. Usually koff stands for the rate constant with which the complex falls apart. A higher koff goes with a short-lived complex. As a reminder, the kon is the second-order rate constant of association. Low readings indicate slower complex formation, high ones faster complex formation. In the case of B1, in experiment [1], the Ka amounted to 7.73e+07 M⁻¹; the affinity, expressed as Kd, was 12.9 nM; the koff came out at 0.00455 s⁻¹; the kon was 352000 M⁻¹ s⁻¹.

B2: BML-17 (other)
chain: VIYQDPVTSDMFAKIPMPGHRGPWYVCHSSGDWSRNEPVFGRCAIDAKGMVEAYFPYGGKDIKWPSRWSAVITTGVYWGKYNDWKQADCNGGQQVVDGGRGAVTVRMDGISECKGWTTGKSSHNEVWFGCNGKEVGSWISDTPASDVFPICQEYGAAVKIVHMGRAFN
notes: also called polypeptide isolated from Bryopsis maxima; BML-17 column (immobilised form)
Turning to B2, the “Minimum inhibitory concentration (hemagglutination inhibition, trypsin-treated rabbit erythrocytes)” value in experiment [2] stood at 1000 µg/mL; in experiment [3], 2000 µg/mL; in experiment [4], 1000 µg/mL; in experiment [5] it was 500 µg/mL; in experiment [6], 250 µg/mL; in experiment [7], 250 µg/mL. The Ka in experiment [1] worked out at 8.36e+07 M⁻¹. The same molecule registered a Kd in experiment [1] of 12 nM. In experiment [1], this molecule showed a koff of 0.00586 s⁻¹. The same molecule had a kon in experiment [1] of 490000 M⁻¹ s⁻¹.
